Assay results as given in patent US20150344570A1 (published 2015).

T1: FcgRIIaR (human, UniProt P12318 34-217)
T1 construct: extracellular domain; also called FcγRIIa R; FcγRIIa type R; not shown: His tag at the C terminus
T1 sequence (looked up): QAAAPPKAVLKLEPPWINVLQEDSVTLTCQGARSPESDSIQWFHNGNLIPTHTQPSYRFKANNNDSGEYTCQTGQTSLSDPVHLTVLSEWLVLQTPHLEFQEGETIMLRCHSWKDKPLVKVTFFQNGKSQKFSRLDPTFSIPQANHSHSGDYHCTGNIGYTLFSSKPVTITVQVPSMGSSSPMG

T2: FcgRIIaH (human, UniProt P12318 34-217)
T2 construct: extracellular domain; also called FcγRIIa H; FcγRIIa type H; not shown: His tag at the C terminus
T2 sequence (looked up): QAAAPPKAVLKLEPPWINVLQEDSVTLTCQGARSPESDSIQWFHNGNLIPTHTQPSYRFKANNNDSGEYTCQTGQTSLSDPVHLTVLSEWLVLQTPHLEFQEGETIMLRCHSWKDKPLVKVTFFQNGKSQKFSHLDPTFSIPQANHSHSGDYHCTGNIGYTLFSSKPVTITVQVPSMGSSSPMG

T3: FcgRIIb (human, UniProt P31994 43-217)
T3 construct: extracellular domain; also called FcγRIIb; CD32B; not shown: His tag at the C terminus
T3 sequence (looked up): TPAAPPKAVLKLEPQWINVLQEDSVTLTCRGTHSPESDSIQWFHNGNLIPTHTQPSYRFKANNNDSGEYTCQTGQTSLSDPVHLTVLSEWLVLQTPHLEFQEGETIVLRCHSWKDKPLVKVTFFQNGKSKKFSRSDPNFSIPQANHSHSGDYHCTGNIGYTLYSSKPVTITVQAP


Columns and labels:
FcγRIIIa = target: T4, FcγRIIIa (human, UniProt P08637 17-208); assay: ratio of SPR KDs: KD of GpH7-G1d/GpL16-k0 divided by KD of this antibody
T4 construct: extracellular domain; also called FcgRIIIa; CD16A; not shown: His tag attached to the C terminus
T4 sequence (P08637 17-208): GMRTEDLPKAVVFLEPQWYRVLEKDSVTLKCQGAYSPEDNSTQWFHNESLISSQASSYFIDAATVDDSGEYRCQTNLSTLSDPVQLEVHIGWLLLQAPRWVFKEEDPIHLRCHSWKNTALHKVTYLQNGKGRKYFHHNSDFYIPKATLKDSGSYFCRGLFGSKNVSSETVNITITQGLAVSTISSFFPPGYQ
Experimental: The prepared antibodies were compared for the FcγRIIIa-binding activity using, as an indicator, KD for FcγRIIIa that was determined according to the method described in Reference Example 2.
Analysis of interaction between objective antibody and the FcγR was carried out using Biacore T100 (GE Healthcare). HBS-EP+ (GE Healthcare) was used as the running buffer, and the measurement temperature was set to 25° C. Chips produced by immobilizing the antigen peptide by the amine coupling method to a Series S Sencor Chip CM5 (GE Healthcare), or alternatively, chips produced by allowing preliminarily biotinylated antigen peptides to interact with and immobilize onto a Series S Sensor Chip SA (certified) (GE Healthcare) were used. Antibodies of interest were captured onto an antigen peptide-immobilized chip, and allowed to interact to each FcγR diluted with running buffer. To regenerate and repeatedly use the chip, the antibodies captured on the chip were washed off by reacting 10 mM glycine-HCl, pH 1.5.
Specifically, to calculate association rate constant ka (L/mol/s) and dissociation rate constant kd (1/s), sensorgrams obtained by measurement were processed for global fitting by Biacore Evaluation Software using 1:1 Langmuir binding model and dissociation constant KD (mol/1) was calculated from the resulting values.

FcgRIIaR = target: T1, FcgRIIaR; assay: SPR (Biacore); KD of H240-Kn033/H240-Hl033/L73-k0 divided by KD of the variant
Experimental: (§1) Binding of the produced variants to FcgRIa, FcgRIIaR, FcgRIIaH, FcgRIIb, FcgRIIIaF, and FcgRIIIaV was measured according to the method of Reference Example 8.
(§2) Analysis of interaction between objective antibody and the FcγR was carried out using Biacore T100 (GE Healthcare), Biacore T200, Biacore A100, and Biacore 4000. HBS-EP+ (GE Healthcare) was used as the running buffer, and the measurement temperature was set to 25° C. Chips produced by immobilizing the antigen peptide by the amine coupling method to a Series S sensor Chip CM5 (GE Healthcare), chips produced by allowing preliminarily biotinylated antigen peptides to interact with and immobilize onto a Series S Sensor Chip SA (certified) (GE Healthcare), chips produced by immobilizing Protein L (ACTIGEN, BioVision) to Series S Sencor Chip CM5 (GE Healthcare), or chips produced by immobilizing Protein A/G (Thermo Scientific) to Series S Sencor Chip CM5 (GE Healthcare) were used. Antibodies of interest were captured onto these chips, and allowed to interact to each FcγR diluted with running buffer. To regenerate and repeatedly use the chip, the antibodies captured onto the chip were washed off by reacting 10 mM glycine-HCl, pH 1.5.

FcgRIIaH = target: T2, FcgRIIaH; assay: as above
Experimental: as §1, §2

FcgRIIb = target: T3, FcgRIIb; assay: as above
Experimental: as §1, §2

FcgRIIIaF = target: T5, FcgRIIIaF (human, UniProt P08637 17-208); assay: as above
T5 construct: extracellular domain; also called FcγRIIIa F; not shown: His tag at the C terminus
T5 sequence (P08637 17-208): as above
Experimental: as §1, §2

FcgRIIIaV = target: T6, FcgRIIIaV (human, UniProt P08637 17-208); assay: as above
T6 construct: extracellular domain; also called FcγRIIIa V; not shown: His tag at the C terminus
T6 sequence (P08637 17-208 F176V limits assumed): as the sequence (P08637 17-208) above, with F160V counted along it
Experimental: as §1, §2

| KD ratio 1 (FcγRIIIa) | fold 2aR (FcgRIIaR) | fold 2aH (FcgRIIaH) | fold 2b (FcgRIIb) | fold 3aF (FcgRIIIaF) | fold 3aV (FcgRIIIaV) | Binder |
| --- | --- | --- | --- | --- | --- | --- |
| 1 fold |  |  |  |  |  | GpH7-G1d/GpL16-k0 (antibody, human IgG1, kappa, Anti-glypican-3 IgG1 whose H chain lacks the C-terminal Gly and Lys; Used as the native IgG1 control; also called native IgG1) heavy: not shown light: DIVMTQSPLSLPVTPGEPASISCQASESLVHSNRNTYLHWYLQKPGQSPQLLIYKVSNRFSGVPDRFSGSGSGTDFTLKISRVEAEDVGVYYCSQNTHVPPTFGQGTKVEIERTVAAPSVFIFPPSDEQLKSGTASVVCLLNNFYPREAKVQWKVDNALQSGNSQESVTEQDSKDSTYSLSSTLTLSKADYEKHKVYACEVTHQGLSSPVTKSFNRGEC |
|  | 1.2 fold | 1.4 fold | 2.1 fold | 24.2 fold | 11.4 fold | H240-Kn205/H240-Hl212/L73-k0 (antibody, human IgG1, kappa, L234Y/Y296W/S298C in one H chain, S239D/K334V in the other) heavy 1: QDQLVQSGAEVKKPGASVKVSCKASGFNIKDTYIQWVRQAPGQGLEWMGRIDPLRKQTKYREKFEGRVTITADTSTNTAYMELSSLRSEDTAVYYCVRSGREFDYWGQGTLVTVSSASTKGPSVFPLAPSSKSTSGGTAALGCLVKDYFPEPVTVSWNSGALTSGVHTFPAVLQSSGLYSLSSVVTVPSSSLGTQTYICNVNHKPSNTKVDKKVEPKSCDKTHTCPPCPAPEYLGGPSVFLFPPKPKDTLMISRTPEVTCVVVDVSHEDPEVKFNWYVDGVEVHNAKTKPREEQWNCTYRVVSVLTVLHQDWLNGKEYKCKVSNKALPAPIEKTISKAKGQPREPQVCTLPPSRDELTKNQVSLWCLVKGFYPSDIAVEWESNGQPENNYKTTPPVLDSDGSFFLYSKLTVDKSRWQQGNVFSCSVMHEALHNHYTQKSLSLSP heavy 2: QDQLVQSGAEVKKPGASVKVSCKASGFNIKDTYIQWVRQAPGQGLEWMGRIDPLRKQTKYREKFEGRVTITADTSTNTAYMELSSLRSEDTAVYYCVRSGREFDYWGQGTLVTVSSASTKGPSVFPLAPSSKSTSGGTAALGCLVKDYFPEPVTVSWNSGALTSGVHTFPAVLQSSGLYSLSSVVTVPSSSLGTQTYICNVNHKPSNTKVDKKVEPKSCDKTHTCPPCPAPELLGGPDVFLFPPKPKDTLMISRTPEVTCVVVDVSHEDPEVKFNWYVDGVEVHNAKTKPREEQYNSTYRVVSVLTVLHQDWLNGKEYKCKVSNKALPAPIEVTISKAKGQPREPQVYTLPPSRCELTKNQVSLSCAVKGFYPSDIAVEWESNGQPENNYKTTPPVLDSDGSFFLVSKLTVDKSRWQQGNVFSCSVMHEALHNHYTQKSLSLSP light: DIQMTQSPSSLSASVGDRVTITCRASQDIHKYIAWYQQKPGQAPRLLIQYTSTLQPGVPSRFSGSGSGTDYTFTISSLQPEDIATYYCLQYEQLRTFGGGTKVEIKRTVAAPSVFIFPPSDEQLKSGTASVVCLLNNFYPREAKVQWKVDNALQSGNSQESVTEQDSKDSTYSLSSTLTLSKADYEKHKVYACEVTHQGLSSPVTKSFNRGEC |
|  | 1.5 fold | 0.7 fold | 1.3 fold | 3.7 fold | 7 fold | H240-afucosyl_G1d/L73-k0 (antibody, human IgG1, kappa, fucose removed from the sugar chain (afucosylated), Anti-epiregulin IgG1, afucosylated; also called afucosylated antibody) heavy: not shown light: DIQMTQSPSSLSASVGDRVTITCRASQDIHKYIAWYQQKPGQAPRLLIQYTSTLQPGVPSRFSGSGSGTDYTFTISSLQPEDIATYYCLQYEQLRTFGGGTKVEIKRTVAAPSVFIFPPSDEQLKSGTASVVCLLNNFYPREAKVQWKVDNALQSGNSQESVTEQDSKDSTYSLSSTLTLSKADYEKHKVYACEVTHQGLSSPVTKSFNRGEC |
|  | 46.3 fold | 13.3 fold | 16.5 fold | 138 fold | 62.3 fold | H240-Kn229/H240-Hl068/L73-k0 (antibody, human IgG1, kappa) heavy 1: QDQLVQSGAEVKKPGASVKVSCKASGFNIKDTYIQWVRQAPGQGLEWMGRIDPLRKQTKYREKFEGRVTITADTSTNTAYMELSSLRSEDTAVYYCVRSGREFDYWGQGTLVTVSSASTKGPSVFPLAPSSKSTSGGTAALGCLVKDYFPEPVTVSWNSGALTSGVHTFPAVLQSSGLYSLSSVVTVPSSSLGTQTYICNVNHKPSNTKVDKKVEPKSCDKTHTCPPCPAPEYYWGPIVFLFPPKPKDTLMISRTPEVTCVVVDVSDEDPEVKFNWYVDGVEVHNAKTKPREEQYNATYRVVSVLTVLHQDWLNGKEYKCKVSNKDLPAPIEKTISKAKGQPREPQVCTLPPSRDELTKNQVSLWCLVKGFYPSDIAVEWESNGQPENNYKTTPPVLDSDGSFFLYSKLTVDKSRWQQGNVFSCSVMHEALHNHYTQKSLSLSP heavy 2: QDQLVQSGAEVKKPGASVKVSCKASGFNIKDTYIQWVRQAPGQGLEWMGRIDPLRKQTKYREKFEGRVTITADTSTNTAYMELSSLRSEDTAVYYCVRSGREFDYWGQGTLVTVSSASTKGPSVFPLAPSSKSTSGGTAALGCLVKDYFPEPVTVSWNSGALTSGVHTFPAVLQSSGLYSLSSVVTVPSSSLGTQTYICNVNHKPSNTKVDKKVEPKSCDKTHTCPPCPAPELLGGPSVFLFPPKPKDTLMISRTPEVTCVVVDVSHEEPEVKFNWYVDGVEVHNAKTKPREEQYNSTYRVVSVLTVLHQDWLNGKEYKCKVSNDALPKPIEETISKAKGQPREPQVYTLPPSRCELTKNQVSLSCAVKGFYPSDIAVEWESNGQPENNYKTTPPVLDSDGSFFLVSKLTVDKSRWQQGNVFSCSVMHEALHNHYTQKSLSLSP light: DIQMTQSPSSLSASVGDRVTITCRASQDIHKYIAWYQQKPGQAPRLLIQYTSTLQPGVPSRFSGSGSGTDYTFTISSLQPEDIATYYCLQYEQLRTFGGGTKVEIKRTVAAPSVFIFPPSDEQLKSGTASVVCLLNNFYPREAKVQWKVDNALQSGNSQESVTEQDSKDSTYSLSSTLTLSKADYEKHKVYACEVTHQGLSSPVTKSFNRGEC |
|  | 1.5 fold | 3.1 fold | 0.6 fold | 264 fold | 253 fold | H240-Kn225/H240-Hl076/L73-k0 (antibody, human IgG1, kappa) heavy 1: QDQLVQSGAEVKKPGASVKVSCKASGFNIKDTYIQWVRQAPGQGLEWMGRIDPLRKQTKYREKFEGRVTITADTSTNTAYMELSSLRSEDTAVYYCVRSGREFDYWGQGTLVTVSSASTKGPSVFPLAPSSKSTSGGTAALGCLVKDYFPEPVTVSWNSGALTSGVHTFPAVLQSSGLYSLSSVVTVPSSSLGTQTYICNVNHKPSNTKVDKKVEPKSCDKTHTCPPCPAPEYQWGPIVFLFPPKPKDTLMISRTPEVTCVVVDVSDEEPEVKFNWYVDGVEVHNAKTKPREEQYNATYRVVSVLTVLHQDWLNGKEYKCKVSNKALPAPIEKTISKAKGQPREPQVCTLPPSRDELTKNQVSLWCLVKGFYPSDIAVEWESNGQPENNYKTTPPVLDSDGSFFLYSKLTVDKSRWQQGNVFSCSVMHEALHNHYTQKSLSLSP heavy 2: QDQLVQSGAEVKKPGASVKVSCKASGFNIKDTYIQWVRQAPGQGLEWMGRIDPLRKQTKYREKFEGRVTITADTSTNTAYMELSSLRSEDTAVYYCVRSGREFDYWGQGTLVTVSSASTKGPSVFPLAPSSKSTSGGTAALGCLVKDYFPEPVTVSWNSGALTSGVHTFPAVLQSSGLYSLSSVVTVPSSSLGTQTYICNVNHKPSNTKVDKKVEPKSCDKTHTCPPCPAPELLGGPSVFLFPPKPKDTLMISRTPEVTCVVVDVSHEEPEVKFNWYVDGVEVHNAKTKPREEQYNSTYRVVSVLTVLHQDWLNGKEYKCKVSNDALPMPIEETISKAKGQPREPQVYTLPPSRCELTKNQVSLSCAVKGFYPSDIAVEWESNGQPENNYKTTPPVLDSDGSFFLVSKLTVDKSRWQQGNVFSCSVMHEALHNHYTQKSLSLSP light: DIQMTQSPSSLSASVGDRVTITCRASQDIHKYIAWYQQKPGQAPRLLIQYTSTLQPGVPSRFSGSGSGTDYTFTISSLQPEDIATYYCLQYEQLRTFGGGTKVEIKRTVAAPSVFIFPPSDEQLKSGTASVVCLLNNFYPREAKVQWKVDNALQSGNSQESVTEQDSKDSTYSLSSTLTLSKADYEKHKVYACEVTHQGLSSPVTKSFNRGEC |
